# According to paper doi:10.1101/2024.07.05.601840v1:
# Experiments:
# Assay in all cases: purified protein
# [1] = substrate: CC(=O)CC(=O)SCCNC(=O)CCNC(=O)[C@H](O)C(C)(C)COP(=O)(O)OP(=O)(O)OC[C@H]1O[C@@H](n2cnc3c(N)ncnc32)[C@H](O)[C@@H]1OP(=O)(O)O; assay type: biochemical, Sulfolobus acidocaldarius; conditions: thiolytic cleavage, 0.2 mM CoA, 20 mM MgCl2, pH 8, 23°C
# [2] = substrate: CC(C)(COP(=O)(O)OP(=O)(O)OC[C@H]1O[C@@H](n2cnc3c(N)ncnc32)[C@H](O)[C@@H]1OP(=O)(O)O)[C@@H](O)C(=O)NCCC(=O)NCCS; assay type: biochemical, Sulfolobus acidocaldarius; conditions: thiolytic cleavage, 0.1 mM AcAcCoA, 20 mM MgCl2, pH 8, 23°C
# [3] = substrate: C/C=C/C(=O)SCCNC(=O)CCNC(=O)[C@H](O)C(C)(C)COP(=O)(O)OP(=O)(O)OC[C@H]1O[C@@H](n2cnc3c(N)ncnc32)[C@H](O)[C@@H]1OP(=O)(O)O
# [4] = substrate: C[C@H](O)CC(=O)SCCNC(=O)CCNC(=O)[C@H](O)C(C)(C)COP(=O)(O)OP(=O)(O)OC[C@H]1O[C@@H](n2cnc3c(N)ncnc32)[C@H](O)[C@@H]1OP(=O)(O)O; conditions: oxidative direction with NAD+
# [5] = substrate: CC(=O)CC(=O)SCCNC(=O)CCNC(=O)[C@H](O)C(C)(C)COP(=O)(O)OP(=O)(O)OC[C@H]1O[C@@H](n2cnc3c(N)ncnc32)[C@H](O)[C@@H]1OP(=O)(O)O; conditions: 0.2 mM NADH, pH 7 TRIS-HCl, 35°C
# [6] = substrate: NC(=O)c1ccc[n+]([C@@H]2O[C@H](COP(=O)(O)OP(=O)(O)OC[C@H]3O[C@@H](n4cnc5c(N)ncnc54)[C@H](O)[C@@H]3O)[C@@H](O)[C@H]2O)c1; conditions: 0.4 mM crotonyl-CoA, pH 7 TRIS-HCl, 75°C, varied: cofactor
# [7] = substrate: NC(=O)C1=CN([C@@H]2O[C@H](COP(=O)(O)OP(=O)(O)OC[C@H]3O[C@@H](n4cnc5c(N)ncnc54)[C@H](O)[C@@H]3O)[C@@H](O)[C@H]2O)C=CC1
# [8] = substrate: CCCCCCCC(=O)SCCNC(=O)CCNC(=O)[C@H](O)C(C)(C)COP(=O)(O)OP(=O)(O)OC[C@H]1O[C@@H](n2cnc3c(N)ncnc32)[C@H](O)[C@@H]1OP(=O)(O)O; conditions: 1 mM FcPF6, pH 6.5 HEPES-KOH, 20 mM KCl, 65°C
# [9] = substrate: C[C@@H](O)CC(=O)SCCNC(=O)CCNC(=O)[C@H](O)C(C)(C)COP(=O)(O)OP(=O)(O)OC[C@H]1O[C@@H](n2cnc3c(N)ncnc32)[C@H](O)[C@@H]1OP(=O)(O)O; conditions: dehydration, pH 6.5 MES-KOH, 20 mM KCl, 65°C
# [10] = 0.3 mM NADPH, pH 7.5 HEPES-NaOH, 10 mM KCl, 70°C
# [11] = 0.2 mM NAD+, pH 7 TRIS-HCl, 75°C
# [12] = 0.6 mM AcAcCoA, pH 7 TRIS-HCl, 35°C, varied: cofactor
# [13] = 0.2 mM INT, pH 7.5 HEPES-NaOH, 100 mM NaCl
# [14] = hydration, pH 6.5 MES-KOH, 20 mM KCl, 65°C
protein,measurement,setting,value
KT/DUF35 (Saci_1121/1120 complex) (Sulfolobus acidocaldarius DSM 639) (protein) MRNVAIVGTGHSKFGVRNDVSMQELAWEAVKQALEEANLEQKDIQYFVVGNVGMWSAEELPAVVVGEYCDLTPKGTMRVEAACATGSAAIRDAYQAIKAGEIDVALVVGVEQMSQSPNPQVIELIGRAGNYFWEFENFGLTFPGYYALYASAYMAKYGMKEEDLGSVAVKNHYYGARNPYAQFQKEITMEEYLKSKPVAQPLKLLDSSPITDGAAALILASEEVARKITDSPVWIVSQGVASGTANLSRRTDFTGIEASYVAAKEAYKRAKIDFSDAWRYFDVADVHDCFTIAEIMAYEDLGFAKRGEGHLMARNGETYIGGKIPVNVDGGLKAKGHPIGATGVSMAVSITRQLLYRAHKGTQADIRNGMGITHNVGGTGHYAYITIYSTRRPSS,Km,[1],65 ± 18.7 µM
same,kcat,[1],4.024 s⁻¹
same,Km,[2],20 ± 4.1 µM
same,kcat,[2],3.467 s⁻¹
KT (Saci_1114) (Sulfolobus acidocaldarius DSM 639) (protein) MLQEVYLVDFARTPFTRFTRKEPQKDPFYNLRPEELAGIVINRLIEKNGINPREIEEIVTGCALQVGEQWSFGGRHEVFASRLPYTIPSMAVDRQCASSITTVAIGAMEVATGMADIVLAGGVEKMSKTPMFDNPHIEPNMAFLTDPKYAEYDLTTGYVMGLTAERLAEEAKISREEMDRWSLRSHQMATKAIQEGYFKDEIIPFETEVEGKKITLTTDQSVRPDTSLEKLSQLPPAFRPNGTITAGNSAPLNSGSAYVLLMSKNALKRYGLTPMAKIRSFGFAGVPPAVMGKGPVPSSKKALEKANLNVKDISLWEINEAFAVVVLNAIKELGLDESTVNKRGGAIAIGHPLGATGARIVGTLARQLLIEGKDYGVATLCVGGGQGGAIVVERV,Km,[1],33 ± 10 µM
same,kcat,[1],1.2 s⁻¹
same,Km,[2],3.38 µM
same,kcat,[2],1.8 s⁻¹
ECR (Saci_1115) (Sulfolobus acidocaldarius DSM 639) (protein) MKAVILPGFKQGYKIDKNVQEPKAGKSEVVVKLRKAALCYRDLLQIQGFYPRSKYPLILGHEMVGEIEEVGEGVEGFKKGDIVTSLLYVPDWTCDNCKMGEEIYCNNRQLYAQELDGFFAERILVKANSLVKVPPGVSDEGAVVVPCVAAMIYRGLKRANVKQGDIVLVTGAGGGVGIHALQVAKALGAKVVGVTSEESKAKIVGKFSDYVVVGNKFAEEVRKGFGEPSIVVDNVGGPTLDESMRSLKIGGKIVQVGNIDPSVNFSLRLGYLVLKNVELIGHAGATKKDIVDTLEMVRQNKITPVIGGEVSIEDFDKALDMLKDRKRHGKILIKP,Km,[3]; [10],96 ± 18 µM
same,kcat,[3]; [10],0.256 s⁻¹
HCDH/ECH (Saci_1109) (Sulfolobus acidocaldarius DSM 639) (protein) MKVEDIKKILVIGAGTMGHGIAELAAIAGYQVYLSDVSQDILNSAMDKVKWSLTKLKERGTIKEDVETVLQRIRPVVGLDKTVSDADFSIEAITEKIDVKRQTFAKLDELLPPHAILATNTSSLPVSKIAEATKRPDKVVGMHYFNPPALMPLVEVMKGDKTSDETAKVTYELAKKLGKQPIMINKDIPGYVVNRILGGINIASCIVVEKKLADIKEVDAVARYKLGFPMGVFELLDYTGIDVAYYISKSREELGVKDDIPICSLIVEKFKNNELGVKSGKGFYTYPGPGKYVKPELPKELAEKLNPALIIAPAVNEAARLVRENIASKEDVDLGTVLGLGFQKGILKLADEVGIDNIVNSLSELKKLTGISSFDPDPLLTEMVSQGKVGMKSGSGFFEYGKIQQKTLKTLILRVEPPLAWIVLNRPERLNALSQELMGELDKVLDELEFNNDVRVVIITGNGRAFSAGADVTSFTTLRPIDVVRYRYMKNVIYKIQLYTKPVIAAINGFALGGGLELAMACDIRIASNLAQLGQPEINIGIIPGAGGTQRLPRLIGKGRAKLLIYTGDMIPAEEAYKMGLVDQVVPANKFEEEVRRVALKIAEKSPLSLLAAKLAVELGYEANIWTGQELESALFGLLFTTEDVKEGVRAFLERRKPQFKGE,Km,[4],43 ± 2 µM
same,kcat,[4],58.672 s⁻¹
same,Km,[3]; [11],24 ± 4 µM
same,kcat,[3]; [11],20.56 s⁻¹
same,Km,[5],76 ± 8 µM
same,Km,[6],36 ± 9 µM
same,Km,[7]; [12],28 ± 7 µM
same,kcat,[7]; [12],8.441 s⁻¹
ETF (Saci_0315) (Sulfolobus acidocaldarius DSM 639) (protein) MAELKIVVSIKQVPDADDLRIDPVTNNLVREGVPAVINPPDYHAIEEAIRLKERFGGKTMVLTMGPGQAEVALREALAMGIDEAYLISDRAMAGADTWATSYTVAKAVQRLGGADIILFGRRAVDGETEQVGPQTGKWLGIPVVAYVREIRSIENGKAVVVRTTEFEEEVIEVPLPAVFTILETANKPRQPDILSLIKAKTAKVTVWNKDDIKAEPTKIGLAGSPTKVIKVSPPPKTRKPEIIDGKKDPEKAAEWFLNKIYESLKEAESSLKEYVKPKAKVKVNSEIWVYIDHIGDRINKASLEILSEARRIADLMDTSVAGVVIGGESVKGIINEVYEYGADKVYFAETKGYDRYDNEVYTKALAKLAKKYKPEGIFFPGTRAARELASTSAIEIDTGLIADCTNFDVDDKGVLLATRPDFGGKEMSTIVCPRHRPVMVTTRAGVFMPLPRMPGRTGELIKEEIEDLYSRLKVLEYKNIEKRNILTEADIVVGVGRGIKSPENIKKFEEFATALGGVLGVSKPLADMGWYPKDRQIGQTGTTIRPKVYIALGVSGAVQHLVGILSSRKIGAINLDQSAPIFDNCDFGVVGDIFEIVPKMMELIKKKGE,Km,[7]; [13],39 ± 12 µM
same,kcat,[7]; [13],0.784 s⁻¹
ACAD (Saci_1123) (Sulfolobus acidocaldarius DSM 639) (protein) MVLPFKTMEAFNVEISEKHELFRRAVREFMERDVAPYVEKGEKEGQIPKEVLEKAKELGLYGVSVPEEYGGQGGDSLMTVIAQEEMARVWAALSTRVAVGGLFMTPILLFGSEEQRKKYVTPVAKGDKVAAFANTEPQAGSDVAGMQSTAKKVNGKYILNARKIFITNGGIADYYVVTARTSPPEPNARWKGISMFVVEREWKGVKVLNRIETMGLKASNTAELAFEDVEVPAENLVGEEGMGFKYAMSTFDASRVGVAGQALGVAQAALEKMTNYSVQRSAFGSPLLGFQMVQEKIAETLTEVNAARLVTYWAATLYNKGMTNEAIIASSMAKYFATEVAERAAIRAITVHGGYGVATSTGVERLLRDVEIMKIYEGANDIQKLVILKETARRLFGIKM,Km,[8],15.1 ± 4 µM
same,kcat,[8],21.234 s⁻¹
MaoC-HCD (Saci_1085) (Sulfolobus acidocaldarius DSM 639) (protein) MSEQGPFFEDFKVGQRFRSKVGRSLTDVDNIWFTLLTNNSNQIHFNRDYTEKYFSGEPFKGRLVVNGFLTLAIVAGLLVELTSQNGFMLGIENVKFMNPVFAGDTIYGEAEVIEARESKSRPGFGIVKIRTWGYNQRGEKIVEFDRVFMVRKRNSVWSGEKSTDKPQ,Km,[3]; [14],222 ± 64 µM
same,kcat,[3]; [14],1.404 s⁻¹
same,Km,[9],399 ± 127 µM
same,kcat,[9],0.549 s⁻¹
